Here are results for eight molecules from patent US20030068675, “Position dependent recognition of GNN nucleotide triplets by zinc fingers” (published 2003).

By Kd is commonly meant the free concentration of one partner at which half of the binding sites on the other are occupied at equilibrium, for simple one-to-one binding.

What all share (assay): EMSA
Common to all, as to settings: tags: MBP fusion
(A gel shift assay detects complexes by their altered migration in electrophoresis.)

Data set [1] addresses T1, ZFP SBS#544 (synthetic).
T1 chain: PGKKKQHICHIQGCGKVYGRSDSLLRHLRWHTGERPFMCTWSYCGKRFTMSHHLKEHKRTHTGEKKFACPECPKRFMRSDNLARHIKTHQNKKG
In short, it runs like this:
(§1)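 Purified ZFP was titrated against labeled double-stranded target (1 nM or lower, at least 10-fold below expected Kd) carrying the natural binding site with flanks. Binding buffer was 10 mM Tris pH 7.5, 100 mM KCl, 1 mM MgCl2, 0.1 mM ZnCl2, 5 mM DTT, 10% glycerol, 0.02% BSA, with equilibration for at least 45 min. Bound and free target were separated on a 10% polyacrylamide gel.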

Data set [2] deals with T2, ZFP SBS#548 (synthetic).
T2 chain: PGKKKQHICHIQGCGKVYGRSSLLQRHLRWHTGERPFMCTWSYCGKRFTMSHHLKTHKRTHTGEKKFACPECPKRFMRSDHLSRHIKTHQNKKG
The method, boiled down:
as §1

In data set [3] the target is T3, ZFP SBS#552 (synthetic).
T3 chain: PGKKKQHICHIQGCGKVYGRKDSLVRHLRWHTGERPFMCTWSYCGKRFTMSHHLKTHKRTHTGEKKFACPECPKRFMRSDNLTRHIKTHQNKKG
The method, boiled down: as §1

For data set [4], the target named is T4, ZFP SBS#549 (synthetic).
T4 chain: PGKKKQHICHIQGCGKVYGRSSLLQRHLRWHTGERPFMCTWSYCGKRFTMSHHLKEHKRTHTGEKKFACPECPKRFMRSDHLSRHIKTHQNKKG
The method, boiled down:
as §1

The target of data set [5] is T5, ZFP SBS#554 (synthetic).
T5 chain: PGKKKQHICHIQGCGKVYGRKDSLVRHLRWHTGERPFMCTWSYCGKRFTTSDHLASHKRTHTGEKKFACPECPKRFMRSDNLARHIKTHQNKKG
In short, it runs like this: as §1

For data set [6], the target named is ZFP SBS#551 (synthetic). In short, it runs like this:
as §1

Data set [7] deals with ZFP SBS#546 (synthetic). In short, it runs like this: as §1
Data set [8] addresses T6, ZFP SBS#545 (synthetic).
T6 chain: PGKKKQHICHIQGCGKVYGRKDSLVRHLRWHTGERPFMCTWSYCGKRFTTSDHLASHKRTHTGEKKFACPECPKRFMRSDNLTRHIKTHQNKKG
In short, it runs like this: as §1

Data set [9] has as its target T7, ZFP SBS#553 (synthetic).
T7 chain: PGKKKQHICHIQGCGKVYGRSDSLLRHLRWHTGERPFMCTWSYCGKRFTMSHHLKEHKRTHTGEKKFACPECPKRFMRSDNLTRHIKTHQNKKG
In short, it runs like this: as §1

The target in data set [10] is T8, ZFP SBS#547 (synthetic).
T8 chain: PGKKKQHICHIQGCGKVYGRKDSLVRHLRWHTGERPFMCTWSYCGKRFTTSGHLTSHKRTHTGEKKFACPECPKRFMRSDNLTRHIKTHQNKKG
In short, it runs like this: as §1

Data set [11] concerns the target T9, ZFP SBS#550 (synthetic).
T9 chain: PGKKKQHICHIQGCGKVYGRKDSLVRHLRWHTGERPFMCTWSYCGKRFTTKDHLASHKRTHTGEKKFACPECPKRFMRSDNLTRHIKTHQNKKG
In short, it runs like this:
as §1

The target in data set [12] is T10, ZFP SBS#560 (synthetic).
T10 chain: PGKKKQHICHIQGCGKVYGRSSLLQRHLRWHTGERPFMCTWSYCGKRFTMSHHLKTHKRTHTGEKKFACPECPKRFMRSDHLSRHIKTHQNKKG
In short, it runs like this:
as §1

In data set [13] the target is ZFP SBS#543 (synthetic). In short, it runs like this: as §1
In data set [14] the target is ZFP SBS#1497 (synthetic). In short, it runs like this: as §1
Data set [15] addresses T11, ZFP SBS#1494 (synthetic).
T11 chain: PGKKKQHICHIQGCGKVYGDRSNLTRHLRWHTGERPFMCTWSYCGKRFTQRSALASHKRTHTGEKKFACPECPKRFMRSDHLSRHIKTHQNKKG
In short, it runs like this: as §1

For data set [16], the target named is T12, ZFP SBS#1486 (synthetic).
T12 chain: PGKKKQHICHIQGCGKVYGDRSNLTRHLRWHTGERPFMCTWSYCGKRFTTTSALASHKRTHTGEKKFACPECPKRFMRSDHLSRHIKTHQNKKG
In short, it runs like this:
as §1

Data set [17] has as its target ZFP SBS#1457 (synthetic). The method, boiled down: as §1
The target in data set [18] is ZFP SBS#1500 (synthetic). In short, it runs like this: as §1
The target of data set [19] is T13, ZFP SBS#1498 (synthetic).
T13 chain: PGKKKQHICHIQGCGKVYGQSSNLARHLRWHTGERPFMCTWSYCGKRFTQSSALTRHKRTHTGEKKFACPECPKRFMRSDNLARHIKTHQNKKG
The method, boiled down: as §1

For data set [20], the target named is T14, ZFP SBS#1499 (synthetic).
T14 chain: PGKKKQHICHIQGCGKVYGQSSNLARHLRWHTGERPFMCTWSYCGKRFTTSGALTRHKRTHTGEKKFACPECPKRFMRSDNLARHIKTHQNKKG
In short, it runs like this: as §1

The target of data set [21] is T15, ZFP SBS#1460 (synthetic).
T15 chain: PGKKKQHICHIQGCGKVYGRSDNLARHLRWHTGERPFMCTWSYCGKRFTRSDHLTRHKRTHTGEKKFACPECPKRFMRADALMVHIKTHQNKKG
The method, boiled down: as §1

For data set [22], the target named is ZFP SBS#1496 (synthetic). The method, boiled down:
as §1

Data set [23] deals with ZFP SBS#1522 (synthetic). In short, it runs like this: as §1
The target of data set [24] is ZFP SBS#1488 (synthetic). The method, boiled down:
as §1

In data set [25] the target is T16, ZFP SBS#1492 (synthetic).
T16 chain: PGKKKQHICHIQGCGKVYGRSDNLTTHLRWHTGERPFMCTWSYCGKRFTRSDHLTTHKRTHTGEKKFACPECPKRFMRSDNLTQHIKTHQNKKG
In short, it runs like this:
as §1

Data set [26] has as its target ZFP SBS#1493 (synthetic). In short, it runs like this: as §1

Chain of ZFP SBS#1522 (synthetic) (chain, as listed by the source): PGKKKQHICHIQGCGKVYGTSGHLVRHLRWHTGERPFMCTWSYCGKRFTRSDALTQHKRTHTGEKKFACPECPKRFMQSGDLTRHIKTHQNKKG
Chain of ZFP SBS#1457 (synthetic) (chain, as listed by the source): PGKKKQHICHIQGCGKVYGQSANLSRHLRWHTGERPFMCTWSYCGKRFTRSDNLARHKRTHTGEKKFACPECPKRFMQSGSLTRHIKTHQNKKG
Chain of ZFP SBS#1496 (synthetic) (chain, as listed by the source): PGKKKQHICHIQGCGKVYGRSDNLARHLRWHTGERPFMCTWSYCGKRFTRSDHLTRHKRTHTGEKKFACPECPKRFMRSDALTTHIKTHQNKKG
Chain of ZFP SBS#1488 (synthetic) (chain, as listed by the source): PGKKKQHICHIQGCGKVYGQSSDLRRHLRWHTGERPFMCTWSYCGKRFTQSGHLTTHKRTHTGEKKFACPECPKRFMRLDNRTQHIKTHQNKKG
Chain of ZFP SBS#546 (synthetic) (chain, as listed by the source): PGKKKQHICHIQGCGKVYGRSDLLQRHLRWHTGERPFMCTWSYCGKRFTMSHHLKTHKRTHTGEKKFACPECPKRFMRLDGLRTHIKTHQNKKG

B1: GAGTGTGTGA (dsDNA)
DNA 1: GAGTGTGTGA
DNA 2: TCACACACTC
In the case of B1, the Kd in data set [1] is 125 nM; in data set [2], 500 nM; in data set [3] it was 31 nM; in [4], 500 nM; in data set [5], 62.5 nM; in [6], 50 nM. Further, the Kd turned out to be 500 nM in data set [7]; 32 nM in data set [8]; 125 nM in data set [9]; 500 nM in data set [10]; 20 nM in [11]; 500 nM in data set [12]. Besides, the affinity in data set [13], expressed as Kd, was 50 nM.

B2: GAGGCTCTT (dsDNA)
DNA 1: GAGGCTCTT
DNA 2: AAGAGCCTC
For B2, the equilibrium dissociation constant (Kd) in [14] amounted to 0.007 nM.

B3: GGGTTTGAC (dsDNA)
DNA 1: GGGTTTGAC
DNA 2: GTCAAACCC
On to B3, for which the Kd in data set [15] is 0.255 nM; in [16] it was 0.085 nM.

B4: GCAGAGGAA (dsDNA)
DNA 1: GCAGAGGAA
DNA 2: TTCCTCTGC
With B4, the Kd is 0.014 nM in data set [17] and 0.003 nM in data set [18].

B5: GAGGTTGAT (dsDNA)
DNA 1: GAGGTTGAT
DNA 2: ATCAACCTC
On to B5, for which the Kd came to 0.101 nM in data set [19] and 0.02 nM in [20].

B6: TTGGGGGAG (dsDNA)
DNA 1: TTGGGGGAG
DNA 2: CTCCCCCAA
In the case of B6, the Kd in [21] was determined as 0.007 nM; in data set [22], 0.065 nM.

B7: GCAATGGGT (dsDNA)
DNA 1: GCAATGGGT
DNA 2: ACCCATTGC
B7 yielded a Kd in [23] of 0.08 nM.

B8: AAGTGGTAG (dsDNA)
DNA 1: AAGTGGTAG
DNA 2: CTACCACTT
For the molecule B8, the Kd is 5.64 nM in data set [24], 1.37 nM in data set [25] and 15.1 nM in data set [26].
